Article PMC3685208

How the values were obtained:
Test in all cases: crystal structure
[1] = target: JCPyV Mad-1 VP1 pentamer (wild type, amino acids 22 to 289) (JC polyomavirus (JCPyV), strain Mad-1)
[2] = target: JCPyV Mad-1 VP1 pentamer L54F (amino acids 22 to 289) (JC polyomavirus (JCPyV), strain Mad-1)
[3] = target: JCPyV Mad-1 VP1 pentamer S268F (amino acids 22 to 289) (JC polyomavirus (JCPyV), strain Mad-1)
[4] = target: JCPyV Mad-1 VP1 pentamer S268Y (amino acids 22 to 289) (JC polyomavirus (JCPyV), strain Mad-1)

JCPyV Mad-1 VP1 pentamer (wild type, amino acids 22 to 289) (domain or fragment)
stoichiometry N [1]: 5

JCPyV Mad-1 VP1 pentamer L54F (amino acids 22 to 289) (domain or fragment)
stoichiometry N [2]: 5

JCPyV Mad-1 VP1 pentamer S268F (amino acids 22 to 289) (domain or fragment)
stoichiometry N [3]: 5

JCPyV Mad-1 VP1 pentamer S268Y (amino acids 22 to 289) (domain or fragment)
stoichiometry N [4]: 5
